Tested on: peptide library, one residue held at a place counted from the S/T acceptor
Test: relative phosphorylation of the sub-library (ratio to the mean residue at this position); higher = residue favoured
Settings: human
Outline: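 Human or orthologue kinase constructs, purified and recombinant, were incubated under kinase-specific conditions in 384-well plates with biotinylated degenerate peptide sub-libraries. Each sub-library fixed one residue at one position around a central Ser/Thr. Incubations lasted 90 min with peptides at 50 μM and 50 μM ATP spiked with γ-32P-ATP, after which spots on streptavidin membranes were phosphorimaged and quantified by densitometry. Relative sub-library phosphorylation is a ratio to the mean residue at that position.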

TRPM7, construct: aa1158-1865, sequence (Q96QT4 1158-1865, looked up): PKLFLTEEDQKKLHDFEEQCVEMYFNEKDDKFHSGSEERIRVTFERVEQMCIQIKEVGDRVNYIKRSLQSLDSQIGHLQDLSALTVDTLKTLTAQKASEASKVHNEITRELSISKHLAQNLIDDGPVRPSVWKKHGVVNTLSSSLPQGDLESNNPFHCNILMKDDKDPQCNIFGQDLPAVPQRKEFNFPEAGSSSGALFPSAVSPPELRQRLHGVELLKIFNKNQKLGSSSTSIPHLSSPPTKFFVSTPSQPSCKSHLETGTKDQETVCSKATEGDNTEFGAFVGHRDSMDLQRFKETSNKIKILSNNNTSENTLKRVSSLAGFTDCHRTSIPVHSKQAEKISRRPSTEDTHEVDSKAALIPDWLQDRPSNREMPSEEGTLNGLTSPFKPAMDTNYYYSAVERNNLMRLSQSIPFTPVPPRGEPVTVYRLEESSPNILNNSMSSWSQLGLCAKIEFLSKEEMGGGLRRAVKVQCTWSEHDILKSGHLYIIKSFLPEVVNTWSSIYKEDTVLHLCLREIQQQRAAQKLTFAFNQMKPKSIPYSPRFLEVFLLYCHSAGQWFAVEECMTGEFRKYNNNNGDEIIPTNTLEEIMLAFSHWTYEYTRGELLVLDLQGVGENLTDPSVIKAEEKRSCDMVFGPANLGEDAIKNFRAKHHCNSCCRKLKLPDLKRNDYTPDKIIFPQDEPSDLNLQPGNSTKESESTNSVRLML
AKT3, construct: aa106-end, sequence (Q9Y243 106-479, looked up): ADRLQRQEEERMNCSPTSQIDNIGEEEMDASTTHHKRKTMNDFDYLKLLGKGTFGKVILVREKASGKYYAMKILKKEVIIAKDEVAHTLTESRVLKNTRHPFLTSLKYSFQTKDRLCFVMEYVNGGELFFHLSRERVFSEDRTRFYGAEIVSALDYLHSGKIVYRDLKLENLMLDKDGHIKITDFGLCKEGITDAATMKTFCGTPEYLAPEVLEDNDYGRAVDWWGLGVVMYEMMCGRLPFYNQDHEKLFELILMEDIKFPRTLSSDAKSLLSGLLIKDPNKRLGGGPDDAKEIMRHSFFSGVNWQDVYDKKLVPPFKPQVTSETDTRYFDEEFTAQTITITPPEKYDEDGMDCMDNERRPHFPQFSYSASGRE

AKT3, construct: aa106-end (from UniProt Q9Y243)
relative phosphorylation
Settings | at +1 | at +2 | at +3 | at +4 | at -1 | at -2 | at -3 | at -4 | at -5
A fixed | 0.69 | 1.13 | 0.867 | 0.755 | 0.872 | 0.914 | 0.532 | 1.12 | 1.27
D fixed | 0.38 | 0.56 | 0.496 | 0.586 | 0.669 | 0.149 | 0.13 | 0.491 | 0.464
E fixed | 0.326 | 0.385 | 0.465 | 0.496 | 0.35 | 0.142 | 0.138 | 0.558 | 0.437
F fixed | 2.25 | 0.596 | 0.824 | 0.604 | 0.783 | 0.32 | 0.168 | 0.611 | 0.672
G fixed | 0.775 | 1.29 | 1.18 | 1.07 | 1.28 | 0.494 | 0.329 | 1.04 | 1.06
H fixed | 0.962 | 2.06 | 1.45 | 1.11 | 1.18 | 1.17 | 0.56 | 0.991 | 1.18
I fixed | 1.29 | 0.723 | 0.938 | 0.691 | 0.245 | 0.274 | 0.131 | 0.515 | 0.577
K fixed | 0.962 | 1.31 | 1.9 | 1.8 | 1.65 | 3.02 | 1.5 | 2.19 | 2.15
L fixed | 1.14 | 0.987 | 0.872 | 0.682 | 0.746 | 0.772 | 0.165 | 0.645 | 0.557
M fixed | 1.58 | 0.774 | 0.718 | 0.716 | 1.12 | 0.391 | 0.179 | 0.833 | 0.648
N fixed | 1.01 | 1.15 | 0.911 | 1.02 | 1.81 | 0.373 | 0.241 | 0.843 | 0.734
P fixed | 0.407 | 0.746 | 0.842 | 2.68 | 1.14 | 0.283 | 0.406 | 1.06 | 1.2
Q fixed | 0.895 | 0.716 | 0.981 | 0.98 | 1.03 | 0.429 | 0.502 | 1.02 | 0.797
R fixed | 1.09 | 1.82 | 1.86 | 1.54 | 1.63 | 7.37 | 11.4 | 3.08 | 2.97
V fixed | 1.23 | 1.02 | 0.711 | 0.659 | 0.402 | 0.324 | 0.147 | 0.639 | 0.692
W fixed | 0.989 | 0.917 | 1.11 | 0.911 | 0.647 | 0.253 | 0.218 | 0.638 | 0.847
Y fixed | 1.04 | 0.812 | 0.87 | 0.697 | 1.46 | 0.326 | 0.222 | 0.727 | 0.752
pThr fixed | 0.571 | 0.463 | 0.682 | 0.639 | 0.279 | 0.294 | 0.255 | 0.612 | 0.545
pTyr fixed | 0.643 | 0.656 | 0.74 | 0.517 | 0.787 | 0.263 | 0.223 | 0.537 | 0.618

TRPM7, construct: aa1158-1865 (from UniProt Q96QT4)
relative phosphorylation
Settings | at +1 | at +2 | at +3 | at +4 | at -1 | at -2 | at -3 | at -4 | at -5
A fixed | 0.649 | 1.18 | 1.19 | 0.591 | 0.902 | 1.13 | 0.852 | 1.08 | 1.17
D fixed | 0.266 | 0.121 | 0.341 | 0.604 | 0.484 | 0.551 | 0.659 | 0.821 | 0.972
E fixed | 0.501 | 0.0976 | 0.256 | 0.561 | 0.489 | 0.576 | 0.836 | 1.07 | 1.05
F fixed | 0.859 | 1.81 | 0.854 | 0.958 | 0.58 | 1.19 | 1.06 | 1.19 | 1.03
G fixed | 0.451 | 0.661 | 0.904 | 0.871 | 0.406 | 1.28 | 0.897 | 1.08 | 1.4
H fixed | 1.1 | 1.22 | 1.22 | 1.34 | 1.47 | 0.842 | 1.05 | 0.86 | 1.1
I fixed | 1.26 | 0.601 | 0.42 | 0.781 | 0.46 | 0.446 | 0.686 | 0.668 | 0.532
K fixed | 2.16 | 1.21 | 2.47 | 2.09 | 2.76 | 0.931 | 1.13 | 1.31 | 1.24
L fixed | 1.18 | 0.477 | 0.662 | 0.859 | 0.996 | 0.868 | 1.01 | 0.872 | 0.608
M fixed | 1.06 | 0.808 | 0.664 | 1.12 | 0.969 | 1.42 | 1.19 | 1.17 | 0.767
N fixed | 0.54 | 0.445 | 1.11 | 1.16 | 1.25 | 0.857 | 1.48 | 1.09 | 1.2
P fixed | 0.142 | 1.42 | 0.623 | 0.676 | 0.896 | 1.28 | 1.07 | 0.972 | 1.1
Q fixed | 1.58 | 1.11 | 1.15 | 1.17 | 1.07 | 1.11 | 0.995 | 0.948 | 1.01
R fixed | 2.14 | 2.06 | 2.52 | 1.61 | 2.11 | 0.975 | 1.36 | 1.17 | 1.29
V fixed | 1.1 | 0.572 | 0.573 | 0.637 | 0.586 | 0.553 | 0.74 | 0.675 | 0.732
W fixed | 0.79 | 1.4 | 0.831 | 1.13 | 0.487 | 2.17 | 1.02 | 1.12 | 0.976
Y fixed | 1.22 | 1.81 | 1.21 | 0.852 | 1.08 | 0.822 | 0.954 | 0.884 | 0.811
pThr fixed | 0.455 | 0.317 | 0.499 | 0.68 | 0.488 | 0.704 | 0.893 | 1.11 | 1.05
pTyr fixed | 0.856 | 0.489 | 0.677 | 0.541 | 0.776 | 0.675 | 1.09 | 0.916 | 1.08

From the supplement of paper PMC9876800
